{"source": "the supplement of paper PMC10567573", "parents": {"B1": {"name": "PWWP2B (parent)", "chain": "TIRLRPRQVLCEKCKSTLSPPEAS"}}}
{"variants_of": "B1", "assay": "protein stability index of a GFP-peptide fusion (GPS, HEK-293T) (PSI 1-6); higher = more stable", "settings": "c terminus: a fixed tail appended"}
{"variant": "TIRLRPRQVLCEKCKSKLSPPEAS", "note": "[T17K]", "protein stability index": 2.62}
{"variant": "TIRLRPRQVLCEKCKSSLSPPEAS", "note": "[T17S]", "protein stability index": 2.96}
{"variant": "TIRLRPRQVLCEKCKSFLSPPEAS", "note": "[T17F]", "protein stability index": 2.56}
{"variant": "TIRLRPRQVLCEKCKSALSPPEAS", "note": "[T17A]", "protein stability index": 3.33}
{"variant": "TIRLRPRQVLCEKCKSRLSPPEAS", "note": "[T17R]", "protein stability index": 2.77}
{"variant": "TIRLRPRQVLCEKCKSQLSPPEAS", "note": "[T17Q]", "protein stability index": 2.78}
{"variant": "TIRLRPRQVLCEKCKSVLSPPEAS", "note": "[T17V]", "protein stability index": 2.48}
{"variant": "TIRLRPRQVLCEKCKSLLSPPEAS", "note": "[T17L]", "protein stability index": 3}
{"variant": "TIRLRPRQVLCEKCKSGLSPPEAS", "note": "[T17G]", "protein stability index": 2.82}
{"variant": "TIRLRPRQVLCEKCKSYLSPPEAS", "note": "[T17Y]", "protein stability index": 2.18}
{"variant": "TIRLRPRQVLCEKCKSTLSLPEAS", "note": "[P20L]", "protein stability index": 2.41}
{"variant": "TIRLRPRQVLCEKCKSTLSMPEAS", "note": "[P20M]", "protein stability index": 2.55}
{"variant": "TIRLRPRQVLCEKCKSTLSHPEAS", "note": "[P20H]", "protein stability index": 2.24}
{"variant": "TIRLRPRQVLCEKCKSTLSGPEAS", "note": "[P20G]", "protein stability index": 3.29}
{"variant": "TIRLRPRQVLCEKCKSTLSFPEAS", "note": "[P20F]", "protein stability index": 2.26}
{"variant": "TIRLRPRQVLCEKCKSTLSAPEAS", "note": "[P20A]", "protein stability index": 2.79}
{"variant": "TIRLRPRQVLCEKCKSTLSCPEAS", "note": "[P20C]", "protein stability index": 2.87}
{"variant": "TIRLRPRQVLCEKCKSTLSYPEAS", "note": "[P20Y]", "protein stability index": 2.42}
{"variant": "TIRLRPRQVLCEKCKSTLSSPEAS", "note": "[P20S]", "protein stability index": 2.79}
{"variant": "TIRLRPRQVLCEKCKSTLSRPEAS", "note": "[P20R]", "protein stability index": 2.65}
{"variant": "TIRLRPRQVLCEKCKSTLSQPEAS", "note": "[P20Q]", "protein stability index": 3.03}
{"variant": "TIRLRPRQVLCEKCKSTLSKPEAS", "note": "[P20K]", "protein stability index": 2.66}
{"variant": "TIRLRPRQVLCEKCKSTLSVPEAS", "note": "[P20V]", "protein stability index": 2.9}
{"variant": "TIRLRPRQVLCEKCKSTLSDPEAS", "note": "[P20D]", "protein stability index": 3.5}
{"variant": "TIRLRPRQVLCEKCKSTLSWPEAS", "note": "[P20W]", "protein stability index": 2.45}
{"variant": "TIRLRPRQVLCEKCKSTLSTPEAS", "note": "[P20T]", "protein stability index": 2.76}
{"variant": "TIRLRPRQVLCEKCKSTLSEPEAS", "note": "[P20E]", "protein stability index": 3.22}
{"variant": "TIRLRPRQVLCEKCKSTLSNPEAS", "note": "[P20N]", "protein stability index": 2.63}
{"variant": "TIRLRPRQVLCEKCKSTLSIPEAS", "note": "[P20I]", "protein stability index": 2.44}
{"variant": "TIRLRPRQVLCEKCKSTPSPPEAS", "note": "[L18P]", "protein stability index": 3.94}
{"variant": "TIRLRPRQVLCEKCKSTHSPPEAS", "note": "[L18H]", "protein stability index": 3.85}
{"variant": "TIRLRPRQVLCEKCKSTFSPPEAS", "note": "[L18F]", "protein stability index": 2.89}
{"variant": "TIRLRPRQVLCEKCKSTISPPEAS", "note": "[L18I]", "protein stability index": 3.03}
{"variant": "TIRLRPRQVLCEKCKSTSSPPEAS", "note": "[L18S]", "protein stability index": 2.87}
{"variant": "TIRLRPRQVLCEKCKSTVSPPEAS", "note": "[L18V]", "protein stability index": 3.18}
{"variant": "TIRLRPRQVLCEKCKSTCSPPEAS", "note": "[L18C]", "protein stability index": 3.15}
{"variant": "TIRLRPRQVLCEKCKSTASPPEAS", "note": "[L18A]", "protein stability index": 2.86}
{"variant": "TIRLRPRQVLCEKCKSTESPPEAS", "note": "[L18E]", "protein stability index": 3.92}
{"variant": "TIRLRPRQVLCEKCKSTGSPPEAS", "note": "[L18G]", "protein stability index": 3.7}
{"variant": "TIRLRPRQVLCEKCKSTRSPPEAS", "note": "[L18R]", "protein stability index": 2.49}
{"variant": "TIRLRPRQVLCEKCKSTNSPPEAS", "note": "[L18N]", "protein stability index": 3.63}
{"variant": "TIRLRPRQVLCEKCKSTYSPPEAS", "note": "[L18Y]", "protein stability index": 2.83}
{"variant": "TIRLRPRQVLCEKCKSTQSPPEAS", "note": "[L18Q]", "protein stability index": 3.05}
{"variant": "TIRLRPRQVLCEKCKSTMSPPEAS", "note": "[L18M]", "protein stability index": 3.94}
{"variant": "TIRLRPRQVLCEKCKSTTSPPEAS", "note": "[L18T]", "protein stability index": 3.08}
{"variant": "TIRLRPRQVLCEKCKSTDSPPEAS", "note": "[L18D]", "protein stability index": 3.78}
{"variant": "TIRLRPRQVLCEKCKSTWSPPEAS", "note": "[L18W]", "protein stability index": 1.96}
{"variant": "TIRLRPRQVLCEKCKSTKSPPEAS", "note": "[L18K]", "protein stability index": 3.11}
{"variant": "TIRLRPRQVLCEKCKSTLSPPEAH", "note": "[S24H]", "protein stability index": 2.63}
{"variant": "TIRLRPRQVLCEKCKSTLSPPEAC", "note": "[S24C]", "protein stability index": 2.99}
{"variant": "TIRLRPRQVLCEKCKSTLSPPEAM", "note": "[S24M]", "protein stability index": 1.97}
{"variant": "TIRLRPRQVLCEKCKSTLSPPEAW", "note": "[S24W]", "protein stability index": 1.93}
{"variant": "TIRLRPRQVLCEKCKSTLSPPEAK", "note": "[S24K]", "protein stability index": 2.7}
{"variant": "TIRLRPRQVLCEKCKSTLSPPEAD", "note": "[S24D]", "protein stability index": 3.44}
{"variant": "TIRLRPRQVLCEKCKSTLSPPEAR", "note": "[S24R]", "protein stability index": 3.02}
{"variant": "TIRLRPRQVLCEKCKSTLSPPEAY", "note": "[S24Y]", "protein stability index": 2.89}
{"variant": "TIRLRPRQVLCEKCKSTLSPPEAA", "note": "[S24A]", "protein stability index": 2.64}
{"variant": "TIRLRPRQVLCEKCKSTLSPPEAG", "note": "[S24G]", "protein stability index": 2.6}
{"variant": "TIRLRPRQVLCEKCKSTLSPPEAT", "note": "[S24T]", "protein stability index": 3.25}
{"variant": "TIRLRPRQVLCEKCKSTLSPPEAQ", "note": "[S24Q]", "protein stability index": 3.09}
{"variant": "TIRLRPRQVLCEKCKSTLSPPEAE", "note": "[S24E]", "protein stability index": 3.28}
{"variant": "TIRLRPRQVLCEKCKSTLSPPEAP", "note": "[S24P]", "protein stability index": 2.9}
{"variant": "TIRLRPRQVLCEKCKSTLSPPEAL", "note": "[S24L]", "protein stability index": 2.66}
{"variant": "TIRLRPRQVLCEKCKSTLSPPEAI", "note": "[S24I]", "protein stability index": 2.78}
{"variant": "TIRLRPRQVLCEKCKSTLSPPEAN", "note": "[S24N]", "protein stability index": 2.98}
{"variant": "TIRLRPRQVLCEKCKSTLSPPEAF", "note": "[S24F]", "protein stability index": 2.36}
{"variant": "TIRLRPRQVLCEKCKSTLSPPEAV", "note": "[S24V]", "protein stability index": 2.62}
{"variant": "TIRLRPRQVLCEKCKRTLSPPEAS", "note": "[S16R]", "protein stability index": 3.2}
{"variant": "TIRLRPRQVLCEKCKYTLSPPEAS", "note": "[S16Y]", "protein stability index": 2.27}
{"variant": "TIRLRPRQVLCEKCKTTLSPPEAS", "note": "[S16T]", "protein stability index": 2.92}
{"variant": "TIRLRPRQVLCEKCKPTLSPPEAS", "note": "[S16P]", "protein stability index": 2.73}
{"variant": "TIRLRPRQVLCEKCKQTLSPPEAS", "note": "[S16Q]", "protein stability index": 3.35}
{"variant": "TIRLRPRQVLCEKCKWTLSPPEAS", "note": "[S16W]", "protein stability index": 1.96}
{"variant": "TIRLRPRQVLCEKCKNTLSPPEAS", "note": "[S16N]", "protein stability index": 3.34}
{"variant": "TIRLRPRQVLCEKCKVTLSPPEAS", "note": "[S16V]", "protein stability index": 2.61}
{"variant": "TIRLRPRQVLCEKCKSTLSPPQAS", "note": "[E22Q]", "protein stability index": 2.58}
{"variant": "TIRLRPRQVLCEKCKSTLSPPVAS", "note": "[E22V]", "protein stability index": 3.18}
{"variant": "TIRLRPRQVLCEKCKSTLSPPIAS", "note": "[E22I]", "protein stability index": 2.09}
{"variant": "TIRLRPRQVLCEKCKSTLSPPSAS", "note": "[E22S]", "protein stability index": 2.81}
{"variant": "TIRLRPRQVLCEKCKSTLSPPHAS", "note": "[E22H]", "protein stability index": 2.34}
{"variant": "TIRLRPRQVLCEKCKSTLSPPWAS", "note": "[E22W]", "protein stability index": 1.94}
{"variant": "TIRLRPRQVLCEKCKSTLSPPGAS", "note": "[E22G]", "protein stability index": 2.18}
{"variant": "TIRLRPRQVLCEKCKSTLSPPMAS", "note": "[E22M]", "protein stability index": 2.4}
{"variant": "TIRLRPRQVLCEKCKSTLSPPTAS", "note": "[E22T]", "protein stability index": 3.15}
{"variant": "TIRLRPRQVLCEKCKSTLSPPNAS", "note": "[E22N]", "protein stability index": 2.46}
{"variant": "TIRLRPRQVLCEKCKSTLSPPFAS", "note": "[E22F]", "protein stability index": 2.02}
{"variant": "TIRLRPRQVLCEKCKSTLSPPPAS", "note": "[E22P]", "protein stability index": 2.69}
{"variant": "TIRLRPRQVLCEKCKSTLSPPDAS", "note": "[E22D]", "protein stability index": 3.41}
{"variant": "TIRLRPRQVLCEKCKSTLSPPCAS", "note": "[E22C]", "protein stability index": 2.42}
{"variant": "TIRLRPRQVLCEKCKSTLSPPKAS", "note": "[E22K]", "protein stability index": 2.62}
{"variant": "TIRLRPRQVLCEKCKSTLSPPYAS", "note": "[E22Y]", "protein stability index": 2.31}
{"variant": "TIRLRPRQVLCEKCKSTLSPPRAS", "note": "[E22R]", "protein stability index": 2.32}
{"variant": "TIRLRPRQVLCEKCKSTLSPPAAS", "note": "[E22A]", "protein stability index": 2.66}
{"variant": "TIRLRPRQVLCEKCKSTLSPPLAS", "note": "[E22L]", "protein stability index": 2.85}
